The labels stand for the following.
B1: F11 (antibody, V domains shown)
VH: EVQLQQSGPELVKPGASVKISCKASGYTFTDYYMNWVKQSHGKSLEWVGDINPNNGVTRYNQNFKGKGTMTVDKSSRTAYMEFRSLTSEDSAVYYCGRLGYYGKYKDGMDYWGQGTSVTVSS
VL: DIQMTQSPASLSVSVGETVTITCRASDNIYSNLAWYQQRQGKSPQLLVYAATNLLDGVPSRFSGSGSGTHYSLKINSLQSEDFGTYYCQHFWGTPFTFGSGTKLEIK
B2: G6 (antibody, V domains shown)
VH: QIQLVQSGPELKKPGETVKISCKASGYTFTPYGLSWVKQAPGKVLKWMGWINTSSGVPTYADDFKGRFAFSLETSVSTAYLQINNLKNEDTATYFCARISVSFYYGLYFDYWGQGTTLTVSS
VL: DIQMTQSPSSMSVSLGDTVSITCHASQGIANNIGWLQQKPGKSFKGLLYHGSTLEDGVPSRFSGSGSGAAYSLTISSLESEDFADYYCIQYAQLPYTFGGGTKLEIK
B3: G9 (antibody, V domains shown)
VH: EVQLQQSGPEQVRTGASVKISCKASGYFFTGYYLHWVRQSHGKSLEWIGYIRSYNGATKYNQKFEGKTTFTVDTSSSTAYMQINSLTSEDSAVYYCAKDEDSGYAMDYWGQGTSVTVSS
VL: DIVMTQSHKFMSTLVGDRVAITCKASQDVSSAVAWYQQKPGQSPKLLIYSASYRFTGVPDRFTGSGSGTDFTFTITTVQTEDLAIYFCQQHYSLPWTFGGGTKLEIK
B4: C9 (antibody, V domains shown)
VH: EVKLLQSGGGLVQPGGSLKLSCAASGIDFSRYWMGWVRRAPGKGLEWIGEINPDSSTINYAPSLKDKFIISRDNAKNTLYLQMIKVRSEDTALYYCARYWADWFFDVWGTGTTVTVSS
VL: DIQMTQSSSYLSVSLGGRVTITCTASDHIDNWLAWYQQKPGNAPRLLLSGATSLDTGVPSRFSGSGSGKDFTLSITSLQTEDVATYYCQQYWSTPYTFGGGTKLEIK
B5: E10 (antibody, V domains shown)
VH: EVQLQQSGAELVRPGSSVKLSCKASGYTFTWYWIDWMKQRPGQGLEWIGNIYPSDSEVQYNQKFKDRATLTLDKSSTTAYMQLSSLTSEDSAVYYCARRLYDYFALDFWGQGTSVTVSS
VL: DIVMTQAAFSNPVTLGTSASISCRSSKSLQHSNGITYLYWYLQKPGQSPQLLIYQMSKFASGVPDRFSSSGSGTDFTLRISRVEAEDVGVYYCAQNLELPWTFGGGTKLEIK
B6: F10 (antibody, V domains shown)
VH: EVQLQQSGAELVRPGSSVKLSCKASGYTFTWYWIDWLKQRPGQGLEWIGNIYPSDSAVQYNQNFKDRATLTLDTSSTTAYLHLSSLTSEDSAVYYCARRIYDYFALDFWGQGTSVTVSS
VL: DIVMTQAAFSHPVTLGTSASISCRSSKSLQHSNGITFLYWYLQKPGQSPQLLIYQMSKLASGIPDRFSSSGSGTDFTLRISRVEAEDVGVYYCAQNLELPWTFGGGTKLEIK
B7: C7 (antibody, V domains shown)
VH: QITQKSEGSGILQPSQTLSLTCSFSGFSLNISGMGVGWIRQPSGKGLEWLAHIWWDDVKRYNPALKSRLTISKDTSSRQVFLKIASVDTADTATYYCVRIDNSYAMDYWGQGTSVTVSS
VL: DIVLTQSPASLAVSLGQRATISCRASKSVSTSGYSYVHWFQQKPGQPPKLLIYLASNLESGVPARFSGSGSGTDFTLNIHPVEEEDAATYYCQHSRELPWTFGGGTKLEIK
B8: D11 (antibody, V domains shown)
VH: EVQLQQSGAELVRPGTSVKLSCKTSGYTFISYWIHWVKQRPGQGLEWIGVIDPSDSYTNYNQNFKGKVTLTVDTSSSTAYMQLSSLTSEDSAVYYCARFDYDDYWGQGTTLTVSS
VL: QIVLTQSPAIMSASPGEKVTMTCSASSSVTYMQWYKQKSGTSPKRWIYDTSKLASGVPARFSGSGSGTSYSLTISSMEAEDAATYYCQQWNTNPWTFGGGTKLEIK
B9: B12 (antibody, V domains shown)
VH: EVQLQQSGPELVKPGASVKIPCKASGYTFTEYNMDWVKQSHGKSLEWIGDINPNNGDTIYNQKFKGKATLTVDKASSTAYMELRSLTSEDTAVYYCARGTLYGSNYYFVMDYWGQGTSVTVSS
VL: DIQITQSPASLSASVGETVTITCGASENIYGALNWFQRKQGKSPQLLIYGATTLADGMSSRFSGNGSGRQYSLKISGLHPDDVATYYCQNVLSIPWTFGGGTKLEIK
B10: B11 (antibody, V domains shown)
VH: EVQLQQSGAEPVRPGTSVKFSCKASGYTLTDYWMHWVKQRPGQGLDWIGVIDPSDSYTTYNQKFKGKATLTVDKSSSTAYMQLSSLTSEDSAVYYCARGPTLYYFDYWGQGTTLTVSS
VL: DIVMTQPQKFMSTSVGDRVSVTCKASQNVGTNVVWCQQKPGQSPKALIYSASYLYSGVPDRFTGTGSGTDFTLTISNVQSEDLAEYFCQQYNNYPLTFGAGTKLELK
B11: E7 (antibody, V domains shown)
VH: EVKLVESGGGLVQPGGSLRLSCATSGFTFTDYYMSWVRQTPGKALEWLGFIRNKPNGYTTEYNASVKGRFTISRDNSRSVLYLQMNVLRAEDSATYFCARVPHDYGFFDYWGQGTTLTVSS
VL: DVLMTQSPLSLPVSLGDQASISCRSSQSIEHINGHTYLEWYLQKPGQSPKVLIYKVSNRFSGVPDRFSGSGSGTDFTLRISRVEAEDLGVYYCFQASHLPYTFGGGTKLEIK

The target in the experiment is mumps hemagglutinin neuraminidase (HN) globular head domain, monomeric (Mumps virus genotype G (strain not …)).
In the case of B1, the binding result is on record as “binds”.

For the molecule B2, the binding result was “binds”.

On to B3, for which the binding result is “binds”.

Turning to B4, the binding result was “binds”.

Consider B5, for which the binding result was “binds”.

Regarding B6, the binding result is listed as “binds”.

Take B7: the binding result is listed as “binds”.

Consider B8, for which the binding result is given as “binds”.

B9: the binding result is “binds”.

In the case of B10, the binding result is “binds”.

B11: the binding result is “binds”.
